Experimental data reported in publication PMC7304853.
Read-outs that look alike come from different tables or passages of the source.

Tests used:
Assay in all cases: SPR
[1] = molecular target: mFcγRII extracellular domain from SCID mice (ly17.2 variant), 6xHis (mouse) (UniProt P08101)
[2] = molecular target: mFcγRII extracellular domain from NOD SCID mice (ly17.1 variant), 6xHis (mouse) (UniProt P08101)
[3] = molecular target: mIgG1 #2 (mouse)
[4] = molecular target: hIgG1 #2 (human)
[5] = molecular target: mIgG2a #2 (mouse)
[6] = molecular target: hIgG2 #1 (human)
[7] = molecular target: hIgG1 #1 (human)
[8] = molecular target: mIgG1 #1 (mouse)
[9] = molecular target: hIgG2 #2 (human)
[10] = molecular target: mIgG2a #1 (mouse)
[11] = molecular target: mIgG1 #2 (mouse); remark: listed apart in the source
[12] = molecular target: hIgG1 #2 (human); remark: listed apart in the source
[13] = molecular target: mIgG2a #2 (mouse); remark: listed apart in the source
[14] = molecular target: hIgG2 #1 (human); remark: listed apart in the source
[15] = molecular target: hIgG1 #1 (human); remark: listed apart in the source
[16] = molecular target: mIgG1 #1 (mouse); remark: listed apart in the source
[17] = molecular target: hIgG2 #2 (human); remark: listed apart in the source
[18] = molecular target: mIgG2a #1 (mouse); remark: listed apart in the source

Chain of UniProt P08101 (P08101 1-207, change not shown): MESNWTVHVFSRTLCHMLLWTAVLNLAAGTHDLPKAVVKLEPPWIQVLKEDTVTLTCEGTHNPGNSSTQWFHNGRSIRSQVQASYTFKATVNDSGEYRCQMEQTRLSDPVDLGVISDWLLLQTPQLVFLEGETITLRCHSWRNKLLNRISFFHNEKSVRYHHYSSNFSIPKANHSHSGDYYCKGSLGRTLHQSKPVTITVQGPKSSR

**Q.** With Rituximab mIgG2a (antibody) as the molecule, how does the Kd [1] read?
**A.** 2630 nM

**Q.** What about the Kd [2] of the same molecule?
**A.** 2430 nM

**Q.** Rituximab mIgG1 (antibody) was tested. Which Kd [1] did it give?
**A.** 2020 nM

**Q.** What about the Kd [2] of the same molecule?
**A.** 2250 nM

**Q.** For Cetuximab (hIgG1) (antibody), which Kd [1] is on record?
**A.** 5420 nM

**Q.** What about the Kd [2] of the same molecule?
**A.** 4380 nM

B1: Recombinant mFcγRII (R&D systems) (receptor)
chain: THDLPKAVVKLEPPWIQVLKEDTVTLTCEGTHNPGNSSTQWFHNGRSIRSQVQASYTFKATVNDSGEYRCQMEQTRLSDPVDLGVISDWLLLQTPQLVFLEGETITLRCHSWRNKLLNRISFFHNEKSVRYHHYSSNFSIPKANHSHSGDYYCKGSLGRTLHQSKPVTITVQGPKSSRSLP
**Q.** B1 was tested. Which Kd [3] did it give?
**A.** 498 nM

**Q.** And the Kd [4]?
**A.** 6610 nM

**Q.** And the Kd [5]?
**A.** 1100 nM

**Q.** What about the Kd [6] of the same molecule?
**A.** 7650 nM

**Q.** What about the Kd [7] of the same molecule?
**A.** 3020 nM

**Q.** And the Kd [8]?
**A.** 274 nM

**Q.** What about the Kd [9] of the same molecule?
**A.** 14500 nM

**Q.** What about the Kd [10] of the same molecule?
**A.** 1180 nM

**Q.** And the Kd [11]?
**A.** 3.62 nM

**Q.** What about the Kd [12] of the same molecule?
**A.** 79 nM

**Q.** What about the Kd [13] of the same molecule?
**A.** 24.1 nM

**Q.** And the Kd [14]?
**A.** 210 nM

**Q.** What about the Kd [15] of the same molecule?
**A.** 49.2 nM

**Q.** And the Kd [16]?
**A.** 2.77 nM

**Q.** And the Kd [17]?
**A.** 218 nM

**Q.** And the Kd [18]?
**A.** 23.6 nM
